Consider eight molecules from patent publication US20150086562A1 (BIOATLA, published 2015).

Positions count from the first letter of the chain named.

B1: VM1000 (antibody, V domains shown)
VH: QVQLVQSGAEVKKPGASVKVSCKASGYVFTSYWLHWIRQSPSRGLEWLGYINPRNDYTEYNRIFKGRLTISKDTSKNQVVLTMTNMDPVDTATYYCARRGITTFYWGQG
VL: EIVLTQSPATLSLSPGERATLSCKSSQSVLYSAVEKNYLAWYQQKPGKAPKLLIYWASTRERGVPSRFSGSGSGTDFTFTISSLQPEDIATYYCKQYLSSWTFGQG
notes: Humanized antibody with human constant region; also called anti-CD22 Mab clone VM1000
B2: VM1004 (antibody, V domains shown)
VH: EVQLVQSGAEVKKPGATVKISCKVSGYVFTSYWLHWIRQSPSRGLEWLGYINPRNDYTEYNRIFKGRFVFSLDTSVSTAYLQICSLKAEDTAVYYCARRGITTFYWGQG
VL: B1 VL with V64I, S66D, F79L, S83R, Q85E, I89F, T91V
notes: Humanized antibody with human constant region; also called anti-CD22 Mab clone VM1004
B3: VM1011 (antibody, V domains shown)
VH: QVQLQESGPGLVKPSQTLSLTCTVSGYVFTSYWLHWIRQPPGKGLEWIGYINPRNDYTEYNRIFKGRVTITADKSTSTAYMELSSLRSEDTAVYYCARRGITTFYWGQG
VL: B1 VL with K48Q, K51R, V64I, S66D, F79L, S83R, Q85E, I89F, T91V
notes: Humanized antibody with human constant region; also called anti-CD22 Mab clone VM1011
B4: VM1002 (antibody, V domains shown)
VH: EVQLVQSGAEVKKPGESLRISCKGSGYVFTSYWLHWVRQAPGQGLEWMGYINPRNDYTEYNRIFKGRVTITADKSTSTAYMELSSLRSEDTAVYYCARRGITTFYWGQG
VL: B1 VL with K48Q, K51R, V64I, S66D, F79L, S83R, Q85E, I89F, T91V
notes: Humanized antibody with human constant region; also called anti-CD22 Mab clone VM1002
B5: VM1003 (antibody, V domains shown)
VH: B2 VH
VL: B1 VL with K48Q, K51R, V64I, S66D, F79L, S83R, Q85E, I89F, T91V
notes: Humanized antibody with human constant region; also called anti-CD22 Mab clone VM1003
B6: VM1001 (antibody, V domains shown)
VH: B1 VH
VL: B1 VL with K48Q, K51R, V64I, S66D, F79L, S83R, Q85E, I89F, T91V
notes: Humanized antibody with human constant region; also called anti-CD22 Mab clone VM1001
B7: VM1006 (antibody, V domains shown)
VH: B2 VH with E1Q, T17S, I20V, V24A
VL: DIQMTQSPSSLSASVGDRVTITCKSSQSVLYSAVEKNYLAWYQQKPGKAPKLLIYWASTRERGIPDRFSGSGSGTDFTLTISRLEPEDFAVYYCKQYLSSWTFGQG
notes: Humanized antibody with human constant region; also called anti-CD22 Mab clone VM1006
B8: VM1007 (antibody, V domains shown)
VH: B4 VH with E1Q, E16A, L18V, R19K, I20V, G24A, P41R, G44R, M48I
VL: B7 VL with D1A, M4L, I64V, D66S, L79F, R83S, P86A, F89A, V91T
notes: Humanized antibody with human constant region; also called anti-CD22 Mab clone VM1007

The term Kd denotes the equilibrium constant for the complex coming apart.

One assay concerns the target T1, CD22 protein expressed on the surface of Daudi cells (human, UniProt P20273 20-847).
T1 construct: whole, on cells; also called human CD22; cell surface CD22
T1 sequence (looked up): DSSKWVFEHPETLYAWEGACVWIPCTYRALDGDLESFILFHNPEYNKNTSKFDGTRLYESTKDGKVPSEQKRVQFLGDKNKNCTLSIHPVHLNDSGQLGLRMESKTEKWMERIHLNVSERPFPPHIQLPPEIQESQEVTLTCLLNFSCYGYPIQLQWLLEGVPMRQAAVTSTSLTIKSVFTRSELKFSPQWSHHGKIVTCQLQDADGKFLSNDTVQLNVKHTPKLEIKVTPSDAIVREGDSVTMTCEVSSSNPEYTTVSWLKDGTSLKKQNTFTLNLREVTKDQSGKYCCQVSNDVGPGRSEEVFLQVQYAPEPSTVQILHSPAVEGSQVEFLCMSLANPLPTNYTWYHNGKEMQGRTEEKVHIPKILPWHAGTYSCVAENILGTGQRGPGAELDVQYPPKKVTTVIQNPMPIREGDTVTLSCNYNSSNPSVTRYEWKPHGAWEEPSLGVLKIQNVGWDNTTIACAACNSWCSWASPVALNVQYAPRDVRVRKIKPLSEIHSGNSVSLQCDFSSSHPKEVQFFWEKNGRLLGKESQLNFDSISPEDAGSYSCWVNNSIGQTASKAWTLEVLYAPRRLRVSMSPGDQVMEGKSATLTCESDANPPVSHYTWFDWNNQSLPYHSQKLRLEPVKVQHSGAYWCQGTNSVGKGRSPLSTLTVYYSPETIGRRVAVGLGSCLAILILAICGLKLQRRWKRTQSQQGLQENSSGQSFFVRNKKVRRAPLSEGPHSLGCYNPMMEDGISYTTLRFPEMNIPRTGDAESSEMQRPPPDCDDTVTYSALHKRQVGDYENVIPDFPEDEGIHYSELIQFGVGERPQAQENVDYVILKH
Nature of the assay: confocal immunofluorescence, FITC-labelled antibody on Daudi cells. On the procedure:
Selected antiCD22 selected anti-CD22 Mab clones VM1000, VM1001, VM1002, VM1003, VM1004, VM1005, VM1006, VM1007, VM1008, VM1009, VM1010, VM1011, VM1012, VM1013, VM1014, and VM1015 of the invention were directly conjugated to F1TC using the Zenon labeling complex (Molecular Probes) using the manufacturer's recommended procedures. Approximately 1×10e7 Daudi cells were resuspended in PBS containing 5 ug/ml labeled anti-CD22 antibody and incubated for 45 minutes on ice. Cells then washed twice in PBS-FBS solution at 0 C. Cells were then incubated in RPMI 1640 media containing 10% FBS for varying periods at 37 C, harvested and washed in PBS at 0 C. The cells were then briefly fixed in 4% paraformaldehyde solution for 5 min at room temperature, then washed in PBS containing 0.05% Triton X-100. Cell pellets were collected by centrifugation and resupended in a minimal volume of FBS neat, and then applied to glass microscope slides. Prior to analysis, slides were treated with mounting fluid containing the nuclear stain DAPI, then coverslips were applied. Confocal images were recorded using an ACAS Ultima confocal microscope (Meridian Instruments, Inc., Okemos, Mich.) and represent 1-μm sections through the center of a focal plane using a 100× oil immersion objective.
The Anti-CD22 monoclonal antibodies selected clones VM1000, VM1001, VM1002, VM1003, VM1004, VM1005, VM1006, VM1007, VM1008, VM1009, VM1010, VM1011, VM1012, VM1013, VM1014, and VM1015 of the invention were analysed for their ability to be rapidly internalized into the intracellular compartment as judged by immunoflourescent signal on the cell surface versus the intracellular endo cytotic compartment. The antibodies of the invention were compared to BA006H, and humanized version of the murine monoclonal antibody LL2. In this example, FIG. 21A, the anti-CD22 antibodies of the invention bind to CD22 protein expressed on the surface of Daudi cells by approximately 20-fold compared to BA006H as judged by relative mean fluorescence (RMF), and are virtually completely internalized within the cell with 90 minutes, localizing predominantly to within the perinuclear golgi apparatus and associated lysozomes. Shown in FIG. 21B is a chart of the RMF surface binding values obtained in this manner for individual anti-CD22 antibodies of the invention.
For the molecule B1, the “fold surface binding by relative mean fluorescence (RMF) compared to BA006H” value is roughly 20 fold.
As for B2, the “fold surface binding by relative mean fluorescence (RMF) compared to BA006H” value is roughly 20 fold.
Take B3: the “fold surface binding by relative mean fluorescence (RMF) compared to BA006H” value is roughly 20 fold.
B4: the “fold surface binding by relative mean fluorescence (RMF) compared to BA006H” value is roughly 20 fold.
With B5, the “fold surface binding by relative mean fluorescence (RMF) compared to BA006H” value is roughly 20 fold.
Turning to B6, the “fold surface binding by relative mean fluorescence (RMF) compared to BA006H” value was roughly 20 fold.
Turning to B7, the “fold surface binding by relative mean fluorescence (RMF) compared to BA006H” value is roughly 20 fold.
As for B8, the “fold surface binding by relative mean fluorescence (RMF) compared to BA006H” value is roughly 20 fold.

The target in the next assay is T2, recombinant CD22 extracellular domain.
T2 construct: Kept apart from m18, which is cell-surface CD22; also called CD22 (analyte in the BIAcore runs); CD22 ECD
The assay is described as follows: The sheet does not state the method. The column 'KD (nM)' stands beside the confocal data. The values largely repeat FIGURE 18 (SPR on recombinant CD22 extracellular domain), so the target form is taken from there. Here is the method:
BIAcore 3000, GE Healthcare was used to determine binding curves and kinetic parameters. An anti-human Fc (1.8 mg/ml) was diluted to a concentration of 50 ug/ml in NaOAc buffer (10 mM, pH 4.8) and coupled to the carboxymethylated dextran matrix of a CM-5 sensor chip using the manufacturer's amine-coupling chemistry as described in the BIAcore systems manual. Using the surface preparation wizard aiming for 10000RU, the carboxyl groups on the sensor surfaces were first activated with NHS/EDC followed by the addition of the anti-human Fc. The remaining activated groups were blocked by the injection of 1M ethanolamine. Each of the flow cells was coupled individually. Employing these conditions, the four flow cell surfaces containing 7554-9571 RU of anti-human Fc were prepared. In preliminary experiments, it was determine that three injections (15 ul at 30 ul/min) 100 mM H₃PO₄/0.05% CHAPS would efficiently remove the bound immunoglobulin and preserve the binding capacity of the immobilized anti-human Fc.
Experiments were performed on the BIAcore 3000 at 25° C. and a flow rate of 30 ul/min. The antibody candidate was dissolved in HBS (10 mM HEPES with 0.15M NaCl, 3.4 mM EDTA, and 0.05% surfactant P20 at pH 7.4) at 5 ug/ml. The analyte, CD22, was dissolved in HBS at 0.25, 0.125, 0.062, 0.031 and 0.015 ug/ml. 3*30 ul of 5 ug/ml of antibody BA001 was flowed over its respective flow cell followed by injections of 240 ul of each CD22 concentration at 30 ul/min (association phase) and an uninterrupted 1200 seconds of buffer flow (dissociation phase). The surface of the chip was regenerated by three sequential injections of 15 ul each with 100 m M H₃PO₄/0.05% CHAPS. The injections of HBS serve as a reference (blank sensogram) for the subtraction of bulk refractive indices for analysis. Using the 1:1 model in BIAevaluation 4.1, both a local fit and global fit was done for both dissociation (kd, [s−1] and association (ka, [M⁻¹s⁻¹]) and the dissociation constant (KD, [M]) calculated (kd/ka).
B1: the dissociation constant (Kd) amounted to 0.5 nM.
B2: the Kd came out at 0.8 nM.
Take B4: the Kd was found to be 0.33 nM.
Take B5: the Kd came out at 0.34 nM.
For the molecule B6, the Kd was 0.22 nM.
With B8, the dissociation constant Kd amounted to 1 nM.
